This is an account of results in the nanobody polyreactivity screen of Harvey et al. (2022).

The data set is described as follows: yeast display, Sf9 membrane polyspecificity reagent, FACS + sequencing; frameworks hold sequencing errors. The essentials: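 A nanobody's polyreactivity label depends on the gate it was sorted from. Yeast display cells were stained with 10% biotinylated, detergent-solubilized Sf9 membrane reagent for 1 hour at 4 °C, enriched on streptavidin microbeads and sorted by FACS. The low and high (top ~1%) gates were set on anti-HA fluorescence for expression and streptavidin fluorescence for reagent binding.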
On to “QVQLVESGGGLVQAGGRLRLSCAASGLILSSNALGWYRQAPGKARELVAAITWDGDRTYADSVKGRFTISRDNAKNTVYLQQNSLKPEDTAVYYCAADKQYYWYDWSYEYWGQGTQVTVSW”, for which the “polyreactivity (PSR sort gate)” value is “low polyreactivity”.

Consider “QVQVVESGGGLVQAGGSHRLSCAASGSTFIRYPMGWYRQAPGKERELVAAITWSGGSTYYADSVKGRFTISRDNAKNTVYLQMNSLKPEDTAFYYCAARGPSLSNYRGRMYYWGQGTQVTVSS”, for which the “polyreactivity (PSR sort gate)” value is listed as “high polyreactivity”.

For the sequence “QVQLVESGGGLVQAGGSLRLSCAASGRNFSYYAMGWYRQAPGKERELVAAISWNGGSTYYADSVKGRFTISRDNAKNTVYLQMNSLKPEDTAVYYCAVLPHYEYDYWGQGTQVTVSS”, the “polyreactivity (PSR sort gate)” value is on record as “high polyreactivity”.

As to “QVQLVESGGGLGQAGGSLRLSCAASGYTFRNYVMGWYRPAPGKERQLVATISRGGRTNYADSVKGRFTISRDNAKNTVYLQMNSLKPEDTAVYYCNADWSRVPYRYDYWGQGTQVTVSS”, the “polyreactivity (PSR sort gate)” value is on record as “high polyreactivity”.

With “QVQLVESGGGLVQAGGSLRLSCAASGFTFQPNAMGWYRQAPGKERELVAAITWSTGRTYYADSVKGRFTISRDNAKNTVYLQMNSLKPEDTAVYYCNKRKNLLHSFEYDYWGQGTQVTVSS”, the “polyreactivity (PSR sort gate)” value was “low polyreactivity”.

In the case of “QVQLVESGGVLDQAGGSLRLRCAASGSTYYRNAMGWYRQAPGKERELVATINRGGSTYYADSVKWRFTISRDNAKNTVYLQMNSLKPEDPAVYYWAKDPYYAGRYRGDYWGQGTQVTVSS”, the “polyreactivity (PSR sort gate)” value was “high polyreactivity”.

For “QVQLVESGGGLVQAGGSLRLSCAASGRIFYSYAMGWYRQAPGKERELVATITRRGSSTYYADSVKGRFTISRDNAKNTVYLQMNSLKPEDTAVYYCNAVGVRRAIGYPSQTEYGYWGQGTQVTVSS”, the “polyreactivity (PSR sort gate)” value is reported as “high polyreactivity”.

Regarding “QVQLVESGGGLVQAGGSLRLSCAASGITFPGYAMGWYRQAPGKERELVAAISDSGSSTYYADSVKGRFTISRDNAKNTVYLQMNSLKPEDTAVYYCAAVSGFYDQYDYWGQGTQVTVSS”, the “polyreactivity (PSR sort gate)” value is “low polyreactivity”.

As for “QVQLVEAGGGLVQAGGSLRLCCAASGSTFVHYAMGWYRQAPGKERELVAAITTSGTGTFYADSVKGRFTISRENAKNNVYLQMNSLKPEETAVNYCAADIYPVWIYLLYVYWGQGTQVTVSS”, the “polyreactivity (PSR sort gate)” value is reported as “low polyreactivity”.

As to “QVQLVESGGGLVQAGGSLRLSCAATGFTIAWYTMGWYRQAPGKERELVAAISLNGGSKYYADSVKGRFTISRDNAKNTVYLQMNSLKPDDTAVYYCAKGYRWPYYPYDYWGQGTQVTVSS”, the “polyreactivity (PSR sort gate)” value is “low polyreactivity”.

As to “QVQLVESGGGLVQAGGSLRLSGAASGRTFYDYAMGWYRQAPGKERELVAAISWIDGSTYYADSVKGRFTISRDNAKNTVYLLMNSLKPEDTAVYYCAARRLVYYRKVKELDYWGQGTQVTVSS”, the “polyreactivity (PSR sort gate)” value is “high polyreactivity”.

For the sequence “QVQLVESGGGLVQAGGSLRLSCAASGIIFYYNAMGWYRQAPGKERELVAAISSSGGSTSYADSVKGRFTISRDNAKNTVFLQMNSLKPEDTAVYYCAADSYPAYLGFVGFDYWGQGTQVTVSS”, the “polyreactivity (PSR sort gate)” value is given as “low polyreactivity”.

Regarding “QVQLVESGRGLVQAGGSLRLSCAASGLNFYDNMGWYRQAPGKERDLVAAISSSGGSTSYADSVKGRFTISRDNAKNTVYLQMNSLNPEDTAVYYCAAEWYPYPWGYGYWGQGTQVTVSS”, the “polyreactivity (PSR sort gate)” value is “low polyreactivity”.

On to “QVQLVESGGGLVQAGGSLRLSCAASGFTFPWYAMGWYRQAPGKERELVAAISTSGGSTYYADSVKGRFTISRDNAKNTVYLQMNSLKPEDTAVYYCAVGRKFGRYRVPFVVPYEYWGQGTQVTVSS”, for which the “polyreactivity (PSR sort gate)” value was “high polyreactivity”.

Take “QVQLVESGVGLVQAGGSLRLSCAASGSIFPGYAMGWYRQAPGKEMELVAGITWSDARTYYADSVKVRFTISRDNAKNTVYLQMNSLKPEDTAVYYCAADYYYYERDYWGQGTQVTVSS”: the “polyreactivity (PSR sort gate)” value is “low polyreactivity”.

On to “QVQLVESGGGLVQAGGSLRLSCAASGRTFLYNAMGWYIQAPGKERELVAAISWNGGRTYYADSVKGRFTISRDNAKNTVYLQMNSLKPEDTAVYYCAKVDQLYNSRYDYWGQGTQVTVSS”, for which the “polyreactivity (PSR sort gate)” value is reported as “high polyreactivity”.

In the case of “QVQLVESGGGLVQAGGSLRLSCAASGLTFPSYAMGWSRQAPGKERELVAAISRRSGSTYYADSVKGRFTICGDNAKYTVYLQMISLKPEDTAVYYCTTRRGERGYWGQGTQVTVSS”, the “polyreactivity (PSR sort gate)” value was “high polyreactivity”.

“QVQLVESWGGLVQAGGSLRLSCAASRIIFRWYAMGWYRKAPGTERELVAAITSDGNTYYADSVKGRFTISRDNAKNTVYLQMNSLKPEDTAVYYCAARLSYYCRMNYWGQGTQVNVSS”: the “polyreactivity (PSR sort gate)” value is on record as “high polyreactivity”.

In the case of “QVQLVESGGGLVQAGGSLRLSCADSGIIFNYYAMGWSRQAPGKEREFVASITSSGSSTYYADSVKGRFTITRDNAKNTVYLQMNSLKPEDTAVYYCAARYLWPKQGGGWGYYSCGQGTQVTVSS”, the “polyreactivity (PSR sort gate)” value is reported as “high polyreactivity”.

In the case of “QVQLVESGGGLVQAGGSLRLSCAASGNTYGYNAMGWYRQAPGKERELVASITWSGGSTYYADSVKGRFTISRDNAKNTVYLQMNSLKPEDTAVYYCNADVRYGRDHWGQGTQVTVSS”, the “polyreactivity (PSR sort gate)” value is recorded as “low polyreactivity”.

Regarding “QVQLVESGGGLVQAGGTLRLICAASGLTFGRYAMGWYRQAPGKERELVASISQRGGSTYYADSVKGRFTISRDNAKNTVYLQMNSLKPEDTAVYYCAARRYYRGEYDYWGQGTQVTVSS”, the “polyreactivity (PSR sort gate)” value is “low polyreactivity”.

As for “QVQLVESGGGLVQAGGSLRLSCAASGRIFDYYAMGWYRQEAGKERELVARITSGGTTNYADSVKGRFTISRDNAKNTVYLQMNSLKPEDTAVYYCNAQDYSDPLQMDYWGQCTQVTVSS”, the “polyreactivity (PSR sort gate)” value is reported as “low polyreactivity”.

As for “QVQLVESGGGLVQAGGSLRLSCAASGSIFGVYAMGWYRQAPGQERELVAVITWSDGGTYYADSVKGRFTISRDNAKNTVYLQMNSLKPEDTAVYYCAKERYDYSYDYWGQGTQVTVSS”, the “polyreactivity (PSR sort gate)” value is recorded as “high polyreactivity”.

Turning to “QVQHVESGGGLVQAGGSLRLSCDASGLTISWYAMGWYRQAPGKEREMVAAISKRGGSTYYADSVKGRFTISRDNAKNTVYLQMNSLKPEDTAVYYCNARSPYTGWTLDYWGQGTQVTVSS”, the “polyreactivity (PSR sort gate)” value is given as “high polyreactivity”.

In the case of “QVQLVESGGVLVQAGGSLRLSCASSGSIFYIYGMGWSRQAPWKERELVARISSGDRTNYADSVKGRFTISRDNAKNRVYLQMNSRNPDDTAVYYCAAKKRKIAGVGGDYWGQGTQVTVSS”, the “polyreactivity (PSR sort gate)” value is “high polyreactivity”.

As for “QVQLVESGGGLVQAGGSLRLICADSGRIVPGYAMGWYRQAPGKERELVAAISTNGGRTYYADSVKGRFTISRDNAKYTVYFQRNSLKPEDTAVYYCNAARAVYTQKRFDSWGQGTQVTVSS”, the “polyreactivity (PSR sort gate)” value was “high polyreactivity”.

Take “QVQLVESGGGLVQAGGSLRLSCAASGITFYDYTMVWYRQAPGKESELVAVITSAGSTYYADSVKGRFTISRDNAKNTVYLQMNSLKPEDTAVYYCAAVIVSRGRKYRLDYWGQGTQVTVSS”: the “polyreactivity (PSR sort gate)” value is given as “high polyreactivity”.

Take “QVQLVESGGGLVQAGGSLRLSCAASGSTFYAYGMGWYRQAPGKERELVATITWSGGSTYYADSVKGRFTISRDNAKNTVYLQMNSLKPEDTAVYYCAARSPFPTIADGDYWGQGTQVTVSS”: the “polyreactivity (PSR sort gate)” value is given as “low polyreactivity”.

In the case of “QVQLQESGGDLEQAGGSLLLSCTASGTISEVRVMGWYRQAPGKERELVATISYVTITYYADSVKGRFTISRDSEKHRVSADDEPQTGRYRGVLLSYYWGLGTQVTVSS”, the “polyreactivity (PSR sort gate)” value is reported as “low polyreactivity”.

As for “QVQLVESGGGLVQAGGSLRLSGAASGRTFPYNTMGWYRQAPGKEWELVASITYTDGSTSYAYSVKGRFTISRDNAKNTVYLQMNCLKPEDTAVYYCAADYYAHQDYRFDYCGQGTQVTVSS”, the “polyreactivity (PSR sort gate)” value is on record as “low polyreactivity”.

Turning to “QGHLVESGGGLVQAGGSLRLSCAASGITLTRYAMGWYRQAPWKERELVAAISTGGGSTYYADSVKGRFTFSRDNAKNTVYLQMNSLKPEDTAVYYCAARIRFARGYPITRTYDYWGQGTQVTVSS”, the “polyreactivity (PSR sort gate)” value is given as “high polyreactivity”.

As to “QVQLVESGGGLVQAGGSLRLSCAASGSTLSDYVMGWYRQAPGKERELVAAITSGGSTSYADSVKGRFTISRDNAKNTVYLQMNSLKPEDTAVYYCNATLLFPLLYGPESGEFDYWGQGTQVTVSS”, the “polyreactivity (PSR sort gate)” value is given as “low polyreactivity”.

As to “QVQLVESGGGLVQAGGSLRLSCAASGSIFGPYAMGWYRQAPGKDRELVAAISLGGGSTSYADSVKGRFTISRDNAKNTVYIQMNSLKPEDTAVYYCNAEYYSGPYGYNGFDYWGQGTQVTVSS”, the “polyreactivity (PSR sort gate)” value is recorded as “low polyreactivity”.

“QVQLVESGGGLVQAGGSLRLSCAASGLIFAVYAMGWYRQAPGKERELVAGISASAASTYYADSVKGRFTISRDNAKNTVYLQMNSLKPEDTAVYYCVAVLPARGYYWGQGTQVTVSS”: the “polyreactivity (PSR sort gate)” value was “high polyreactivity”.

Take “QVQLVESGGGLVQAGGSHRLSCAASGSTFEYYAMGWYRQAPGKERELVAAITTSGGITYYADSVKGRFTISRDNAKNTVYLQMNSLKPEDTAVYYCNADAVPFPTLVTYLYDYWGQGTQVTVSS”: the “polyreactivity (PSR sort gate)” value is reported as “low polyreactivity”.

With “QLQLVESGGGLVQAGGSLRLSCAASGRIFGNYAMGWYRQAPGKERELVASINIGGGSTYYADSVKGRFTISRDNAKNTVYLQMNSLKQEATAVYYCAAPNTTDYWPAQPGFDYWGQGTQVTVSS”, the “polyreactivity (PSR sort gate)” value is “low polyreactivity”.

As to “QVQLVESGGGLVQAGGSLRLICAASGSIFPANVMGWYRQAPGKERELVAVISSSGGRTFYADSVKGRFTISRDNAKNTVYLQMNSLKPDDTAVYYCAATIYDYKRALKYYYWGLGTQVTVSS”, the “polyreactivity (PSR sort gate)” value is “high polyreactivity”.

Regarding “QVQLVESGGGLVQAGGRLRLSCAASGSTFSYYAMGWYRQAPGKERELVAAISSRGSSTYYADSVKGRFTISRDNAKNTVYLQMNSLKPQATAVYYCAAVRYSPTKFNYWGQGTQVTVSS”, the “polyreactivity (PSR sort gate)” value is given as “high polyreactivity”.

“QVQLVESGGGLVQAGGSLRLSCAASGFTFARYAMGWYIQAPGKEREFVAAISLSTTSTYYADSVKGRFTISRDNAKNTVYLQMNSLKPEDTAVYYCATDIVGPHVDYWGQGTQVTVSS”: the “polyreactivity (PSR sort gate)” value is “low polyreactivity”.

For the sequence “QVQLQESGGGLVQAGGSLRLSCAASGSISHYIFMGWYRQAPGKEREFVAGIGYGGTTNYADSVKGRFTISRDNAKNTVYLQMNSLKPEDTAMYYCAAREATEFYLYYWGQGTQVTVSS”, the “polyreactivity (PSR sort gate)” value is “low polyreactivity”.

Turning to “QVQLVESGGGLVQAGGSLRLTCAASGFNFWDYAMGWYRQAPGKERELFAAISDSGGDTYYADSVKGRFTISRDNAKNTVYLQMNSLKPEDTAVYYCASDVELWVFRGQQYDYWGQGTQVTVSS”, the “polyreactivity (PSR sort gate)” value is reported as “low polyreactivity”.
